# From IntAct's records for PubMed 21258410
# B1: Mothers against decapentaplegic homolog 7 (Homo sapiens), O15105 (parent)
# chain: MFRTKRSALVRRLWRSRAPGGEDEEEGAGGGGGGGELRGEGATDSRAHGAGGGGPGRAGCCLGKAVRGAKGHHHPHPPAAGAGAAGGAEADLKALTHSVLKKLKERQLELLLQAVESRGGTRTACLLLPGRLDCRLGPGAPAGAQPAQPPSSYSLPLLLCKVFRWPDLRHSSEVKRLCCCESYGKINPELVCCNPHHLSRLCELESPPPPYSRYPMDFLKPTADCPDAVPSSAETGGTNYLAPGGLSDSQLLLEPGDRSHWCVVAYWEEKTRVGRLYCVQEPSLDIFYDLPQGNGFCLGQLNSDNKSQLVQKVRSKIGCGIQLTREVDGVWVYNRSSYPIFIKSATLDNPDSRTLLVHKVFPGFSIKAFDYEKAYSLQRPNDHEFMQQPWTGFTVQISFVKGWGQCYTRQFISSCPCWLEVIFNSR
# Variants of: B1
# Conditions: with wwp2_human WWP2, O00308
# wwp2_human WWP2, O00308, sequence (O00308 whole entry): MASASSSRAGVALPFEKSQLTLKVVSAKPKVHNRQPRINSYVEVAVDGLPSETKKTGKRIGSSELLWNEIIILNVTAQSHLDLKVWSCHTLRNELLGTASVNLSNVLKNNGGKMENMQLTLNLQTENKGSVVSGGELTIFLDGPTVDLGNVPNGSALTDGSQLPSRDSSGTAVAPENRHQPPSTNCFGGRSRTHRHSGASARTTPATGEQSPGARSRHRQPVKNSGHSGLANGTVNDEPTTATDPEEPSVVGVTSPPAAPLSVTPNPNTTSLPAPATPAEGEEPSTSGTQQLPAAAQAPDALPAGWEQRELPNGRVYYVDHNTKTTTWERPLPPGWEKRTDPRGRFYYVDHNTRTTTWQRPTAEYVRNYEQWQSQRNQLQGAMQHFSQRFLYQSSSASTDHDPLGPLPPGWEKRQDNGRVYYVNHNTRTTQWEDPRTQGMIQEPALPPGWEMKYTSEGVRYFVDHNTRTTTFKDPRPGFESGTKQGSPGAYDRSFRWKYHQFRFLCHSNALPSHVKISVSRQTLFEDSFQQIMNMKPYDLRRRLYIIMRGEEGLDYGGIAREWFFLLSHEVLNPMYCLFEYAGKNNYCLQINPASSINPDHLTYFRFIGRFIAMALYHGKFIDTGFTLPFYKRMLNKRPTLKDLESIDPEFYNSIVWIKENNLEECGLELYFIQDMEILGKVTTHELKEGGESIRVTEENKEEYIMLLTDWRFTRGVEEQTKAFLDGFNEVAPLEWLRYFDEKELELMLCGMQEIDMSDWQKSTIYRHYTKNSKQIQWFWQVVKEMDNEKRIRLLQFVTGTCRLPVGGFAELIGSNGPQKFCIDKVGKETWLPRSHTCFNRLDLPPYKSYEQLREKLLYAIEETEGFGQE
row,effect of a mutation on the interaction,Variant
1,disrupting interaction,P210G;Y211S
